Source: patent US20260027190A1, “OVARIAN TUMOR DEUBIQUITINASE OXIDATION AND USES THEREOF” (The University of Vermont and State Agricultural College, priority 2022, published 2026)

Key:
[1] = tested on: KRAS-mutant A549 cells; assay: A549 cell viability / cisplatin-induced killing; assay type: cell-based
[2] = tested on: human LUAD organoids; assay: Human LUAD organoid viability / cisplatin-induced killing; assay type: cell-based
Text: To date, the first line therapy for advanced KRAS-mutant lung adenocarcinoma (LUAD) consists of platinum-based chemotherapy in combination with the immune checkpoint inhibitor, pembrolizumab, or pembrolizumab alone in patients whose tumors have PD-L1 expression equal or greater than 50%. […] However, tumor resistance to platinum and toxicity is limited in its effectiveness, necessitating the development of strategies to increase sensitivity to cisplatin-induced killing and increase responsiveness to immune checkpoint inhibitors. Increases in GSH contribute to resistance of cisplatin-induced killing. In one study we administered 20 μg/ml of GLRX to human LUAD organoids in the presence or absence of cisplatin.

B1: GLRX: recombinant wild-type glutaredoxin protein, deglutathionylating enzyme, administered directly to cells (protein, UniProt P35754 2-106, looked up)
Glutaredoxin-1: AQEFVNCKIQPGKVVVFIKPTCPYCRRAQEILSQLPIKQGLLEFVDITATNHTNEIQDYLQQLTGARTVPRVFIGKDCIGGCSDLVSLQQSGELLTRLKQIGALQ
viability ([1]; GLRX alone): did not decrease
cisplatin-induced killing ([1]; GLRX with cisplatin): promoted
viability of human LUAD organoids ([2]; 20 μg/ml GLRX alone): did not affect
sensitivity to cisplatin-induced tumor organoid killing ([2]; 20 μg/ml GLRX with cisplatin, compared to cisplatin only): strongly increased
